Source: the DeepSol protein solubility set

experiment: soluble on expression in E. coli; label from the status in PepcDB or PDB records

Row | Sequence | soluble on expression in E. coli
1 | SLPRDENMPLIQVIDDDVSMLILLKDALESKGWMVMANTEPEKAVDQFFDMNPDCLIIDVNLPGKSGFHVLEDIQKHTNKKFIPKLMISIMNDRETRIKAYRLGADDFISKPIDLEEFLIKVERHLDRKQIFDQSVLIDELTQVYNRRFLKDSLKRYLKELERSNQYFSIAVLDLDHFKQVNDMYGHPAGDRILSEFAQYLKDHVRIGDIVFRYGGEEFILLLPRTNDHDSKEVVSRLLSGFSSRTFIEGGAELKMTFSAGVYMVHDPSATVAEAIKTADQALYKAKRNGRARVESANKLIGGHSRKVLNVSVIDDDAIIRTMLMKILQSMEFEHTSLDIQVYEDGQKFLQSGRMEQKGEHFLILDGIMPVMDGTEVLQKVKENRNASRVHVLMLTGRKTEYDIARALKLGADDYVTKPFSITELQARIHRLIQRMSEG | soluble
2 | MIYDFTTKISRKNLGSLKWDLMYSQNPEVGNEVVPLSVADMEFKNPPELIEGLKKYLDETVLGYTGPTEEYKKTVKKWMKDRHQWDIQTDWIINTAGVVPAVFNAVREFTKPGDGVIIITPVYYPFFMAIKNQERKIIECELLEKDGYYTIDFQKLEKLSKDKNNKALLFCSPHNPVGRVWKKDELQKIKDIVLKSDLMLWSDEIHFDLIMPGYEHTVFQSIDEQLADKTITFTAPSKTFNIAGMGMSNIIIKNPDIRERFTKSRDATSGMPFTTLGYKACEICYKECGKWLDGCIKVIDKNQRIVKDFFEVNHPEIKAPLIEGTYLQWIDFRALKMDHKAMEEFMIHKAQIFFDEGYIFGDGGIGFERINLAAPSSVIQESLERLNKALKDLKNRHLK | soluble
3 | MGSDKIHHHHHHMSILYEERLDGALPDVDRTSVLMALREHVPGLEILHTDEEIIPYECDGLSAYRTRPLLVVLPKQMEQVTAILAVCHRLRVPVVTRGAGTGLSGGALPLEKGVLLVMARFKEILDINPVGRRARVQPGVRNLAISQAVAPHNLYYAPDPSSQIACSIGGNVAENAGGVHCLKYGLTVHNLLKIEVQTLDGEALTLGSDALDSPGFDLLALFTGSEGMLGVTTEVTVKLLPKPPVARVLLASFDSVEKAGLAVGDIIANGIIPGGLEMMDNLSIRAAEDFIHAGYPVDAEAILLCELDGVESDVQEDCERVNDILLKAGATDVRLAQDEAERVRFWAGRKNAFPAVGRISPDYYCMDGTIPRRALPGVLEGIARLSQQYDLRVANVFHAGDGNMHPLILFDANEPGEFARAEELGGKILELCVEVGGSISGEHGIGREKINQMCAQFNSDEITTFHAVKAAFDPDGLLNPGKNIPTLHRCAEFGAMHVHHGHLPFPELERF | not soluble
4 | MSLKITWLGHAAFLLEGSMKVLIDPFLTGNPNAPVKPEEVKADYILVTHGHGDHLGDAVEIAKRNNAPIICIHELSRILSRYDVETMGMNMGGTARTGSIAVTMVPAWHSADLEDEQGNIISAGLPAGFIVSMDGVRVYHTGDTDVFLDMQLIGELHRPDVMLLPIGDYYTMGIAGAVKALELVKPKVAIPMHYNTFPLVEKDPEDFRKAVKAKGLDVEVVILKPGESYEFNKEGGSHHHHHH | soluble
5 | MSYSPSLKEIIAILQKYTSKNYQSNCKTRPDGKLELSLNGVFEEIVKTPGKTRYVTHKQLDQKLKDFKQDLMVELHDTFATKTDLKESEARINQKLEALIQIVMVQGEQIKVHGEQINKLTQAVEKQGEKIEAQGQQIQKVNETLNFVVESLGSIHKRLDSMEGRLDSMENRLDKLESK | soluble
6 | SAKFVIAGRADCPYYAKTELVADYLQKNLPDFRIHKITQRPEVWEDWLKDVCEKNKWSHKNSPIIWRELLDRGGKGLLLGGYNEFLEHAQLYYDVTSSMTTELMMVIAQENLGAHIEKEQEEEALKTCINPLQVWITSEWVKREFVAILKNLTTTGRQFGGILAAHSIATTLKYWYHGSPPGEIVSLGILSEGQFGIPKGIVFSMPVKFENGTWVVLTDLKDVEISEQIMTRMTSDLIQEKLVALGDKIHFQPYQSDTPRTNTLHPSIQSSWHSVLTITIRKR | soluble
7 | MSLDKAPERVVSVGYTDDQTVLAFGIKPVGMVDQYPNPAGQSPDINTQWPWVKDKWGDTKPEVVMKNGDTGPNFEKIAALRPDLIVAVYSEIDQAAYDKLSKIAPTVGRTKGEKEPFSAPWQDNALHIAKALGKAEEGEKMVADIQGKLDAAKQAHPEFADKTAVVLSWYKDSVAPFTSTDVRGRLVTGIGFKYETEIDKVAGGDFYTTLSPERVDLVDVDRVFVINDKADQDALKKFELFTNLDAVKNGKVSYLLDSEGPAVGAAISQGTLLSMPYAVDELVKSAGEGHHHHHH | soluble
8 | MSLSIFSHFQERFEATRQEEYSLQEYLDLCKQDKTAYASAAERLLMAIGEPELLDTSVDSRLSRIFSNKVIRRYPAFADFHGMEECIDQIVAFFRHAAQGLEEKKQILYLLGPVGGGKSSLAEKLKQLMEKVPFYAIKGSPVFESPLGLFNPDEDGAILEEDYGIPRRYLRSIMSPWATKRLNEFGGDISQFRVVKLYPSILNQIAIAKTEPGDENNQDISALVGKVDIRKLEEYPQNDADAYSYSGALCRANQGLMEFVEMFKAPIKVLHPLLTATQEGNYNSTEGLGALPYSGIILAHSNESEWHSFRNNKNNEAFIDRIYIVKVPYCLRVADEIKIYDKLLVNSSLAHAHCAPDTLKMLSQFSVLSRLKEPENSNIYSKMRVYDGENLKDTDPKAKSIQEYRDSAGVDEGMAGLSTRFAFKILSKVFNFDPHEVAANPVHLLYVLEQQIEQEQFQPETRERYLRFIKEYLAPRYVEFIGKEIQTAYLESYSEYGQNIFDRYVLYADFWIQDQEYRDPETGEILNRAALNEELEKIEKPAGISNEGHHHHHH | not soluble
9 | MRGRAVSRNAIIGIVHRNAKLAAIGFGRAKSSPASEGSSTYTPEEIKLVADCLKAKRNYVQIAQRLALKSGRIISRFGVKSLIRRTPELNEIGFRGKKGRPSDKKKAAPGQLPGRLFIAATADIDRDPSAFDYLTRPAVRALASQPHFAAMRFVDCLPARCRAPLSYDLEERPGPDMLCCGHLAMPSRSYCAYHEIRLTARKAEFIAEAALEHHHHHH | not soluble
10 | MAKSPVEVNLIPIEATPENFAEYGQVIEASRDGAGFGPHDAQLDLSRGTPRLYILRLKETPLGFFKITHHAKVTQCLGSIGGDVWYMGVAKPSLIEDDDDDGRSVDTVKSKSGHLYIPPEVEEIRVFRFSGPKFVKLHRGTWHAGPLFSGSSFMDFYNLELSNTNVSEEWF | soluble
11 | MAGQVVVNDHLADKAGLQVPVEAEIRLKGEDIPFVSRGGLKLARALEEFGIDVADMTAIDVGASTGGFTDCLLQRGARKVYAVDVGYGQLAWKLRQDSRVVNLEKTNIRYLEPGALPETPGLAVIDASFISLDKVLPSTLRLIGEEGVIVALIKPQFEVGRGEVGKGGVVRDEEKHRRVIADVVALAEGLGLMVLGVTESPILGPKGNREFLIHLKKAVGETPPHNR | not soluble
12 | MSLELVIGTKRWSSWSLRPWLALKRAGVDFTELEVALRRGEATGDEIGCISPSRLAPALRDGDLVIWDSLAICEYLAERYPDAKLWPDDPVLRALGRSACAEMHSGFQALRGECPMALDEPPRKLDLSEATQKNVRRIVALWTGLLARSHGPFLLGDWSIADAFYTPVATRFRTYDVRLADYGDAGAAQGYSDRLLQTPEFLEWERAAQAGEGHHHHHH | soluble
13 | MQKELFRQSPDSNKLILFFNGWAMTREAVSHLAIPPEYDLLHVWDYRTDTLHFDWSPYREICLSAWSMGVWAAERLSREGRLPSVVSAVAICGTGYPMDDTMGIPLDIFRGTLDGLTEENRLRFNRRMCGGKSLKHLLEALAARETDEIKAELGRVYEEEEKRLKSDDPHPVAPLSWDKALIGAKDRIIPAKNQQAFWQMRGCRNIETVAEGDHYLFNRFTEWEQLWS | not soluble
14 | MAHHHHHHMLHTTRLWLGGYMMYHRKAMGTMKYSKWKGAHGGISHFYGRTPMVEEVRPNEPITLVDRRIMHYVHHSRLRHFQLFRSYQEKSNSTECKLREGEMLRRRWHRRLQKSFIAFMQFKTMKVLEDQARLVNTYGQAAVNAALGDPWNATDNVARERKSAAVRRQVRALPMVNVVPKHVATMKQIHNDRFNYRWRVN | not soluble
15 | MAPKVFYISDGTAITAEVFGHAVLSQFPLEFESLTIPFVETLAKAENVKRQINDCFITTGERPLVFHSIVKPEIRDIIYSSEGLDYDFLNTFVAPLEQHLGVSASPVLHRTHGKANQGYEARIDAINFAMDNDDGQTMKHMDQADLILLGVSRCGKTPSSLYLSMQFGIKAANYPFTEDDMDNLKLPEALKRNKKKLFGLTIDPVRLHEIRQSRMENSRYSSLKQCRLEVKEVEMMFKRERIPYIDTTNHSVEEIATKILDVTGLERHMFMAGDPLEHHHHHH | soluble
16 | MRKEAIHHRSTDNFAYAYDSETLHLRLQTKKNDVDHVELLFGDPYEWHDGAWQFQTMPMRKTGSDGLFDYWLAEVKPPYRRLRYGFVLRAGGEKLVYTEKGFYHEAPSDDTAYYFCFPFLHRVDLFQAPDWVKDTVWYQIFPERFANGNPAISPKGARPWGSEDPTPTSFFGGDLQGIIDHLDYLADLGITGIYLTPIFRAPSNHKYDTADYFEIDPHFGDKETLKTLVKRCHEKGIRVMLDAVFNHCGYEFAPFQDVLKNGAASRYKDWFHIREFPLQTEPRPNYDTFAFVPHMPKLNTAHPEVKRYLLDVATYWIREFDIDGWRLDVANEIDHQFWREFRQAVKALKPDVYILGLIWHDAMPWLRGDQFDAVMNYPLADAALRFFAKEDMSASEFADRLMHVLHSYPKQVNEAAFNLLGSHDTPRLLTVCGGDVRKVKLLFLFQLTFTGSPCIYYGDEIGMTGGNDPECRKCMVWDPEKQNKELYEHVKQLIALRKQYRALRRGDVAFLTADDEVNHLVYAKTDGNETVMIIINRSNEAAEIPMPIDARGKWLVNLLTGERFAAEAETLCVSLPPYGFVLYAVESW | soluble
17 | MSLYVPGKQVTLAHIIASPNKEIYTKLGLPEGTSNALGILTITPSEAAIIAVDIATKSGDIQIGFIDRFSGSVVISGDVSSVEAALQAVIEGLQQILNFSVTCKEGHHHHHH | not soluble
18 | MGSDKIHHHHHHMDKLLYIAMSGAKQNMQALSINANNLANAKTTGFKADLAQARSMQAFGEGLPSRVFSMTERASQNFDSGSILHTGRSLDMAIEGEGFFAVQAEDGQEAYTRGGHFRLTETGALETNDGELVIGENGPITLPLPINNIQISRDGTIMVQPAGAPSSVQEEVGRIKLVNPDTRLVDKGNDGLFRAKNGGQLIADVNVNVLGGALESSNVNPINEMTDMIALQRQFEMQLKMMKTAEEIDSSASSLLRAF | not soluble
19 | MVTQNKKILIITGSFGNGHMQVTQSIVNQLNEMNLNHLSVIQHDLFMEAHPIMTSICKKWYINSFKYFRNTYKRFYYSRPNELDKCFYKYYGLNKLINLLIKEKPDLILLTFPTPVMSVLTEQFNINIPIATVMTDYRMHKNWITPYSQRYYVATKDTKDDFIEAGVPASYIKVTGIPIADKFEESIDKEEWLSQQHLDPSKPTILMSAGAFGVSKGFDYMINNILEKSPNSQVVMICGRSKELKRSLKAKFKDNPSVKILGYTNHMNEWMASSQLMITKPGGITISEGLSRCIPMIFLNPAPGQELENAYYFESKGFGKIADTPNEAIDIVSDLTNNEETLKVMSSKMLESKVGYSTRKICKDLLDLIGHSSQPDEIYGKVPLYARFFVKLEHHHHHH | soluble
20 | MQYPINEMFQTLQGEGYFTGVPAIFIRLQGCPVGCAWCDTKHTWDKLSDREVSLFSILAKTKESDKWGAASSEDLLAVINRQGYTARHVVITGGEPCIHDLMPLTDLLEKSGFSCQIETSGTHEVRCTPNTWVTVSPKVNMRGGYDVLSQALERANEIKHPVGRVRDIEALDELLATLSDDKPRVIALQPISQKEDATRLCIETCIARNWRLSMQTHKYLNIA | not soluble
